Publication PMC11090809

Target: empty AAVHSC-15 capsid (OXBS1-E fraction of AAV-OXBS1) (AAVHSC-15 (Clade F adeno-associated virus))
Test: charge detection mass spectrometry (CDMS); OXBS1-E fraction sprayed into a CDMS instrument (Megadalton Solutions); single ions trapped, charge detected, masses calculated; n = 1

empty AAVHSC-15 capsid (OXBS1-E fraction of AAV-OXBS1) (complex)
% relative abundance of the dimer peak: 20%
stoichiometry N: 2
